Assay results taken from the supplement of paper PMC12764529.
± gives the half width of the 95% confidence interval.

Key:
[1] = folding stability dG unfold from trypsin proteolysis; higher = more stable
Procedure, shortened: (§1)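 Bayesian fitting of sequencing counts gave K50 for each design. Unfolding free energy followed by setting this against a sequence-predicted unfolded-state K50 and a shared folded-state K50, either per protease or with trypsin and chymotrypsin combined. The designs, under 80 residues and lacking cysteine, were digested in a PA-tagged cDNA display format at 11 threefold-diluted protease concentrations and without protease, and only those with AlphaFold2 dimer inter-PAE above 15 were kept.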

[2] = folding stability dG unfold from chymotrypsin proteolysis; higher = more stable
Procedure, shortened: as §1

[3] = folding stability dG unfold (combined trypsin and chymotrypsin); higher = more stable
Procedure, shortened: as §1

Sequence	folding stability dG unfold [1]	folding stability dG unfold [2]	folding stability dG unfold [3]
SAGGSAGGSKKKVKVEIVEYDPETKKVTVRVTVDGKEYEFTFSTPEELEAAAKAGKIDEITLTSAGGSAGGS [r12_421_TrROS_Hall]	9.45 ± 0.247 kJ/mol	9.56 ± 0.18 kJ/mol	9.45 ± 0.276 kJ/mol
SAGGSMIELTLTSTVPDGTPASTVPPEVAREQALAYAEAQGLTVVEIRVEFDPEAGTITIPVVTALSAGGSA [r2_237_JUSTAS]	5.79 ± 0.176 kJ/mol	2.84 ± 0.544 kJ/mol	4.65 ± 0.502 kJ/mol
SAGGSAGGSMIKVKITYPNGEEKTIEIEAETEEEAEEAAKKLAEELGKDVKVEVEKVSPEELKSAGGSAGGS [r12_385_TrROS_Hall]	6.88 ± 0.314 kJ/mol	5.12 ± 0.142 kJ/mol	6.08 ± 0.305 kJ/mol
SAGIPYRVLELEIPGVGVRVEVRLAPDGRIVEVRVTVVPVPPVPPALPLRPELLVPDEDGRWYSPEELLSAG [r5_685_TrMRF]	11.2 ± 0.247 kJ/mol	9.45 ± 0.117 kJ/mol	10.2 ± 0.46 kJ/mol
SAGGSAGGMKVKIKLGPGEEVEIEVVEDKETNKLYFKIVNKKTKKVYVFETLEEAKNMSLEELLSAGGSAGG [r6_739_TrROS_Hall]	7.46 ± 0.272 kJ/mol	15.6 ± 0.293 kJ/mol	13.5 ± 0.502 kJ/mol
SAGGMQALLRLPDTDEVVVLPDELLEAIASGDPERLAALPPEVREVISNVAELVVVPPPDGDPRPEGGSAGG [r13_233_TrMRF]	1.75 ± 0.134 kJ/mol	2.08 ± 0.628 kJ/mol	2.57 ± 0.628 kJ/mol
SAGGSAGGSEYYIYIQIDKNGKIEIVDVVPPGEPMEDMPPEQYDHTIMFPFESPEDALAEILKSAGGSAGGS [r12_452_TrROS]	2.53 ± 0.0795 kJ/mol	3.06 ± 0.092 kJ/mol	3.01 ± 0.314 kJ/mol
SAGGNNIMIWIRKNPKEGKRKIMIYTDSPSWVEMIAEEAKDPGFKIVGPMTVEEAAQKMGFPPDLFISAGGS [r16_438_TrROS]	4.54 ± 0.586 kJ/mol	5.42 ± 0.628 kJ/mol	5.31 ± 0.837 kJ/mol
SAGGSAGGSAGMKTITKKVKSEEEAKKLAEELKKKGYKVEVEVKKDPKTGNYIVTITIELPESAGGSAGGSA [r18_455_JUSTAS]	13.9 ± 0.753 kJ/mol	16.3 ± 0.795 kJ/mol	16.3 ± 1.63 kJ/mol
SAGGSMKIVEIKIKRNKNGKLTIEIKVELSEEELEDKEKRKKLIEELAKKLAEELEKKFGIKVEVPSAGGSA [r2_306_TrROS_Hall]	13.2 ± 0.372 kJ/mol	13.7 ± 0.381 kJ/mol	13.7 ± 0.586 kJ/mol
SAGGSAGGKITITLPGAEIVSVEESEDGKTITITVRLENGELLKITLKRVNGKWYITKIELLKPSAGGSAGG [r6_718_TrROS_Hall]	14.8 ± 0.36 kJ/mol	18.93 ± 0.159 kJ/mol	18.2 ± 0.285 kJ/mol
SAGGSAGGSAGGKTYTAEELRSLPPGAKITLADGKVIEVSIEQLEKEIKPGDTVRIERVPSAGGSAGGSAGG [r7_643_TrROS_Hall]	2.27 ± 0.18 kJ/mol	-1.69 ± 0.711 kJ/mol	0.719 ± 0.377 kJ/mol
SAGGSAGGSAGGSMKNVPVTVEGSSSVVPLPDGSPVTVTELTTTTLGENGEVSTSTTVVSSAGGSAGGSAGG [r11_817_JUSTAS]	-2.57 ± 0.293 kJ/mol	5.59 ± 0.163 kJ/mol	3.79 ± 0.347 kJ/mol
SAGGSAGGSAGKTIKILLVVKDPETNEYYFLVMEIHLDENGNLHMKIKVFPTKEDAEKALSAGGSAGGSAGG [r11_792_TrROS_Hall]	15.3 ± 0.795 kJ/mol	17.4 ± 0.356 kJ/mol	17 ± 0.628 kJ/mol
SAGGSAGGSAEELLKKLAEELGLEEGDEVTIEVDGKLIKIYFNKDGKIVKVEVYELDPEDLSAGGSAGGSAG [r3_468_TrROS_Hall]	8.4 ± 0.46 kJ/mol	15 ± 0.364 kJ/mol	13.6 ± 0.331 kJ/mol
SAGGSAGGSAGLKPEVEALVRVVLKLPEGERVVLVKVKTLEELFELDLPEVVSIEIRPLKSAGGSAGGSAGG [r17_290_TrMRF]	5.36 ± 0.117 kJ/mol	7.24 ± 0.205 kJ/mol	6.7 ± 0.268 kJ/mol
DRIEIDVEMYDGYFYKIEIRWPGNGEPRELMFPGSLSEAKDFAEDLIQEQHPGAPVDEIDVEPVPMPPGDFS [r1_80_TrROS]	2.86 ± 0.837 kJ/mol	8.42 ± 0.209 kJ/mol	7.07 ± 0.795 kJ/mol
SAGGSAGGSATRVEVEWKDGYLVITKYETLPNGEWKEVKTIVIPIEGNDPIAIEKAKEVIEKLSAGGSAGGS [r12_169_JUSTAS]	12.1 ± 0.213 kJ/mol	12.1 ± 0.205 kJ/mol	12.2 ± 0.268 kJ/mol
SAGGSAGGSASSVPARLPDATVLEVTTDPATGLQTALLRFPDGSEVVVTHYPDGSVEVRPLSAGGSAGGSAG [r3_348_JUSTAS]	7.69 ± 0.259 kJ/mol	11.2 ± 0.117 kJ/mol	10.3 ± 0.414 kJ/mol
SAGGSAPPVKVDVEELDDDLVKVTVTFPGGPFTLKLYKDGKLLKEETVPEDETATFVLPKDALIVGSAGGSA [r15_581_TrMRF]	3.55 ± 0.213 kJ/mol	6.65 ± 0.268 kJ/mol	5.71 ± 0.247 kJ/mol
SAGGSAGGSAGKRRIYILGMDTVQVAEYLRDTGPDIKVEVFNPGQPMEEFQDNYDIVIFVSAGGSAGGSAGG [r17_225_TrROS]	6.67 ± 0.146 kJ/mol	9.75 ± 0.418 kJ/mol	8.55 ± 0.669 kJ/mol

Sequence	folding stability dG unfold [1]	folding stability dG unfold [2]	folding stability dG unfold [3]
SAGGRTLEFNMKSNNPNMMENEISKLLRELGFPPGFDIEVNPERDPNGRYTYPITITVDNPELADKISAGGS [r8_85_TrROS]	0.445 ± 1.8 kJ/mol	-0.0135 ± 2.26 kJ/mol	-0.32 ± 1.76 kJ/mol
SAGGSAGGSWIPLPDGYLIKITEVVPGGIRIKFPDMGNEITIPPGMPIKIKIIPVKDPDGEPISAGGSAGGS [r20_105_TrROS]	4.31 ± 0.234 kJ/mol	3.51 ± 0.209 kJ/mol	3.76 ± 0.586 kJ/mol
SAGGSAGGSMPVITVDPSIKEFKDEKGNKYLLTPVTVTLPNGVPVTVVYTTDPSTGKTTPATSGSAGGSAGG [r6_298_JUSTAS]	2.81 ± 0.247 kJ/mol	2.01 ± 0.502 kJ/mol	2.6 ± 0.418 kJ/mol
SAGGSAGGSAGASPSVPFTVKVTIKSPNGLSTKTISLSSLEDLEALPLPNVVEIEITPLSSAGGSAGGSAGG [r17_290_JUSTAS]	4.35 ± 0.205 kJ/mol	3.26 ± 0.586 kJ/mol	3.79 ± 0.586 kJ/mol
SAGGSAGGSAFQIEDLKIEKVEFNPDGMVHNELEITLPGGKELEVSIMIDPKKPGKLMIMIVSAGGSAGGSA [r18_97_TrROS]	8.29 ± 0.46 kJ/mol	5.94 ± 0.205 kJ/mol	6.95 ± 1.3 kJ/mol
SAGGSAGGANTVTIELPNGFRITLNDDGTITISYYDPETGELVKTVTIKLPPPPPVVVVHEDDKSAGGSAGG [r6_572_TrROS_Hall]	13 ± 0.962 kJ/mol	14.2 ± 0.322 kJ/mol	14 ± 0.502 kJ/mol
SAGGSMTITITNEDGSTYEITVEEENGKLRITITVDGKTVEIEFDKETGKITIRYNGKTFTLTIKPSAGGSA [r2_194_TrROS_Hall]	16.1 ± 0.795 kJ/mol	22.3 ± 0.544 kJ/mol	20.9 ± 1.76 kJ/mol
SAGKKLIIRVEVYRREKNENGEIKKVTETLEVPPGATIEELVKALAPPGYTIRIEIIENGKIIETIEIKSAG [r5_278_TrROS_Hall]	8.95 ± 0.669 kJ/mol	15 ± 0.36 kJ/mol	13.5 ± 1.3 kJ/mol
SAGGSAGGSAGMNKKGKYTVIEELVINPKTNYLFKKKVTIYPDGKIEVKSELLGPILPTESAGGSAGGSAGG [r11_226_TrMRF]	1.4 ± 0.213 kJ/mol	5.87 ± 0.28 kJ/mol	4.29 ± 0.251 kJ/mol
SAGGSAGGPSYTIQFPYPPGMPPWRLQKLLEEAGYPPPEIEYNPKNGSHWITFSPEVRDAFKELSAGGSAGG [r6_307_TrROS]	1.99 ± 0.418 kJ/mol	3.54 ± 0.711 kJ/mol	2.83 ± 0.879 kJ/mol
SAGGSAGGSAGFHIDVEVHRDDEGYVKVRVKMYMYNPDPGEPMGSFEMTIWIPPEDADKLSAGGSAGGSAGG [r11_575_TrROS]	13.9 ± 0.586 kJ/mol	16.3 ± 0.234 kJ/mol	15.5 ± 0.41 kJ/mol
SAGGSAGGSAGGGSITITFKHPDGGEVTIEITPPEPTVRVTVTLPNGEKLEYEFDFVPASAGGSAGGSAGGS [r10_595_TrMRF]	13.6 ± 0.92 kJ/mol	15.4 ± 0.46 kJ/mol	15 ± 0.586 kJ/mol
SAGGSSEIVELKSIEKKGNSVILTLESKTNDYKVVVVIEGNKIRAYVFDKNGNIIAEFEFDGHPYLSAGGSA [r2_437_TrMRF]	10.1 ± 0.46 kJ/mol	14 ± 0.192 kJ/mol	13.2 ± 0.628 kJ/mol
SMDFKENQSFYITEITDDEVTFIFNNKPYKFPKEFINSKDTIITIYNGKIKEIKKPKPLKLHPEEIKKLSSA [r9_842_TrMRF]	2.17 ± 0.711 kJ/mol	5.99 ± 0.502 kJ/mol	4.36 ± 1.51 kJ/mol
SAGMIKVEVYTLDPNGVLTKETYEIPLLPGTPIEEVVNELTEPGTGAVEIVEYNPPPPEIKIKIVRFPASAG [r5_227_TrMRF]	6.17 ± 1.8 kJ/mol	12.3 ± 0.377 kJ/mol	10.4 ± 0.962 kJ/mol
SMKIEIIERNEDGEYVLVRITFEDGEEITIVAKTEEEAKEAAKEIAKELFPDVKIKKIEVVPLEDLPEELSA [r9_137_TrROS_Hall]	6.77 ± 0.586 kJ/mol	1.05 ± 1.55 kJ/mol	4.2 ± 1.3 kJ/mol
SAGGSAGMDPSKVSLSISTKTYTDTATGRKVEELYFEGSGKKVTVTTLPDGTKIVTYENGVVIEVESAGGSA [r15_617_JUSTAS]	3.17 ± 0.1 kJ/mol	-2.81 ± 1 kJ/mol	1.31 ± 0.226 kJ/mol
SAGKIPPIKDIEPNPDNGMLMITIPFPDDGKLKVRIENKGQDQEYEFPPGMSFMIPPSNAPIKIEIEWDSAG [r14_96_TrROS]	3.59 ± 0.0795 kJ/mol	3.43 ± 0.289 kJ/mol	3.66 ± 0.41 kJ/mol
SEKVKITIEVWRPPGWWYVKIKLPDNGQEITYPFDSAEDFKEQIKKWLGLPPDNVKITDVEVYPMPPDDFSA [r9_909_TrROS]	7.63 ± 0.46 kJ/mol	13.1 ± 0.339 kJ/mol	10.5 ± 0.92 kJ/mol
SMVEKLPDGTTVIKGELPLDVSIEDVLAKLPDLKLASRTSETDPATGKRYYTFIVKPDGTVDVTSEPKLLSA [r9_238_JUSTAS]	2.7 ± 0.113 kJ/mol	5.07 ± 0.381 kJ/mol	4 ± 0.188 kJ/mol
SAGGSAGGSAEPPPLVVVTEVRTITVEIDLDDLSEEEREALENLDTVTITVTRVVVVPREDLSAGGSAGGSA [r18_127_TrROS_Hall]	10.1 ± 0.92 kJ/mol	5.82 ± 0.92 kJ/mol	7.72 ± 1.92 kJ/mol
